Patent US11278600B2, “Human alpha-galactosidase variants” (Codexis, Inc., priority 2014, dated 2022)
Changes are numbered by the printed parent chain.

B1: 548 (protein)
chain: LDNGLARTPTMGWLHWERFMCNLDCQEEPDSCISEKLFMEMAERMVSEGWKDAGYEYLCIDDCWMAPQRDSEGRLQADPQRFPHGIRQLANHVHSKGLKLGIYADVGNKTCAGFPGSFGYYDIDAQTFADWGVDLLKFDGCYCDSLENLADGYKHMSLALNRTGRSIVYSCEWPLYMWPFQKPNYTEIRQYCNHWRNFADIDDSWASIKSILDWTSRNQERIVDVAGPGGWNDPDMLVIGNFGLSWDQQVTQMALWAIMAAPLFMSNDLRHISPQAKALLQDKDVIAINQDPLGNQGYQLRKGDNFEVWERPLSGDAWAVAIINRQEIGGPRSYTIPVASLGKGVACNPACFITQLLPVKRQLGFYNWTSRLKSHINPTGTVLLQLENTMQMSLKDLL
modifications: Synthetic Polypeptide sequence of Variant No. 548 of mature Human GLA
B2: 550 (protein)
chain: B1 chain with N295S
modifications: Synthetic Polypeptide sequence of Variant No. 550 of mature Human GLA
B3: 549 (protein)
chain: B1 chain with N295Q
modifications: Synthetic Polypeptide sequence of Variant No. 549 of mature Human GLA
B4: 551 (protein)
chain: B1 chain with N295T
modifications: Synthetic Polypeptide sequence of Variant No. 551 of mature Human GLA
B5: 547 (protein)
chain: B1 chain with N295L
modifications: Synthetic Polypeptide sequence of Variant No. 547 of mature Human GLA
B6: 382 (protein)
chain: B1 chain with H92Y, H94N, A206K, N295K
modifications: Synthetic Polypeptide sequence of Variant No. 382 of mature Human GLA
B7: 387 (protein)
chain: B1 chain with H92Y, V93T, A206K, N295K
modifications: Synthetic Polypeptide sequence of Variant No. 387 of mature Human GLA
B8: 388 (protein)
chain: B1 chain with H92Y, V93L, A206K, N295K
modifications: Synthetic Polypeptide sequence of Variant No. 388 of mature Human GLA
B9: 360 (protein)
chain: B1 chain with R44E, H92Y, N295K
modifications: Synthetic Polypeptide sequence of Variant No. 360 of mature Human GLA
B10: 386 (protein)
chain: B1 chain with H92Y, H94R, A206K, N295K
modifications: Synthetic Polypeptide sequence of Variant No. 386 of mature Human GLA
B11: 383 (protein)
chain: B1 chain with H92C, A206K, N295K
modifications: Synthetic Polypeptide sequence of Variant No. 383 of mature Human GLA
B12: 384 (protein)
chain: B1 chain with H92V, A206K, N295K
modifications: Synthetic Polypeptide sequence of Variant No. 384 of mature Human GLA
B13: 390 (protein)
chain: B1 chain with H92Y, V93Q, A206K, N295K
modifications: Synthetic Polypeptide sequence of Variant No. 390 of mature Human GLA
B14: 389 (protein)
chain: B1 chain with H92Y, V93S, A206K, N295K
modifications: Synthetic Polypeptide sequence of Variant No. 389 of mature Human GLA
B15: 385 (protein)
chain: B1 chain with H92A, A206K, N295K
modifications: Synthetic Polypeptide sequence of Variant No. 385 of mature Human GLA

Assay: HTP-analysis of supernatants pretreated with acid (MUGal hydrolysis)
Type: biochemical
Conditions: activity of the variant/activity of Rd3BB (SEQ ID NO: 13); challenge at pH 3.7
Summary of the method: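 MUGal hydrolysis was tracked by fluorescence (Ex 355 nm, Em 448 nm) after a 30-180 min reaction at 37° C. in pH 4.8 McIlvaine/citrate buffer, stopped with 1 M sodium carbonate. Beforehand, yeast (INVSc1) culture supernatants carrying GLA variants were held 1-3 h at 37° C. in acidic McIlvaine buffer, pH 3.3-4.3.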

Row | Molecule | Relative Activity of GLA Variants After Challenge at pH 3.7
1 | B1 | +++ (+++ = >10 relative activity over Rd3BB (SEQ ID NO: 13))
2 | B2 | + (+ = 1.5 to 5 relative activity over Rd3BB (SEQ ID NO: 13))
3 | B3 | ++ (++ = >5 to 10 relative activity over Rd3BB (SEQ ID NO: 13))
4 | B4 | + (+ = 1.5 to 5 relative activity over Rd3BB (SEQ ID NO: 13))
5 | B5 | + (+ = 1.5 to 5 relative activity over Rd3BB (SEQ ID NO: 13))

Same assay, conditions: activity of the variant/activity of Rd4BB (SEQ ID NO: 15); challenge at pH 3.7

Row | Molecule | Relative Activity of GLA Variants After Challenge at pH 3.7
6 | B6 | − (<0.5 relative activity over Rd4BB (SEQ ID NO: 15))
7 | B7 | + (0.5 to 1.5 relative activity over Rd4BB (SEQ ID NO: 15))
8 | B8 | − (<0.5 relative activity over Rd4BB (SEQ ID NO: 15))
9 | B9 | + (0.5 to 1.5 relative activity over Rd4BB (SEQ ID NO: 15))
10 | B10 | + (0.5 to 1.5 relative activity over Rd4BB (SEQ ID NO: 15))
11 | B11 | − (<0.5 relative activity over Rd4BB (SEQ ID NO: 15))
12 | B12 | + (0.5 to 1.5 relative activity over Rd4BB (SEQ ID NO: 15))
13 | B13 | + (0.5 to 1.5 relative activity over Rd4BB (SEQ ID NO: 15))
14 | B14 | + (0.5 to 1.5 relative activity over Rd4BB (SEQ ID NO: 15))
15 | B15 | + (0.5 to 1.5 relative activity over Rd4BB (SEQ ID NO: 15))

Assay: HTP-analysis of yeast culture supernatants, no challenge (MUGal hydrolysis)
Type: biochemical
Conditions: activity of the variant/activity of Rd3BB (SEQ ID NO: 13)
Summary of the method: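 GLA variants expressed in yeast INVSc1, secreted into SD-Ura broth over 66-84 h at 30° C; clarified supernatants tested without challenge. Supernatant mixed with McIlvaine buffer pH 4.8 and 2 mM MUGal (citrate/KCl, pH 4.6), 37° C for 30-180 min, carbonate-quenched, fluorescence Ex 355/Em 448 nm.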

Row | Molecule | Relative Activity of GLA Variants After No Challenge (NC)
16 | B1 | + (+ = 1.5 to 5 relative activity over Rd3BB (SEQ ID NO: 13))
17 | B2 | + (+ = 1.5 to 5 relative activity over Rd3BB (SEQ ID NO: 13))
18 | B3 | + (+ = 1.5 to 5 relative activity over Rd3BB (SEQ ID NO: 13))
19 | B4 | + (+ = 1.5 to 5 relative activity over Rd3BB (SEQ ID NO: 13))
20 | B5 | + (+ = 1.5 to 5 relative activity over Rd3BB (SEQ ID NO: 13))

Same assay, conditions: activity of the variant/activity of Rd4BB (SEQ ID NO: 15)

Row | Molecule | Relative Activity of GLA Variants After No Challenge (NC)
21 | B6 | − (<0.5 relative activity over Rd4BB (SEQ ID NO: 15))
22 | B7 | + (0.5 to 1.5 relative activity over Rd4BB (SEQ ID NO: 15))
23 | B8 | + (0.5 to 1.5 relative activity over Rd4BB (SEQ ID NO: 15))
24 | B9 | + (0.5 to 1.5 relative activity over Rd4BB (SEQ ID NO: 15))
25 | B10 | − (<0.5 relative activity over Rd4BB (SEQ ID NO: 15))
26 | B11 | + (0.5 to 1.5 relative activity over Rd4BB (SEQ ID NO: 15))
27 | B12 | + (0.5 to 1.5 relative activity over Rd4BB (SEQ ID NO: 15))
28 | B13 | + (0.5 to 1.5 relative activity over Rd4BB (SEQ ID NO: 15))
29 | B14 | + (0.5 to 1.5 relative activity over Rd4BB (SEQ ID NO: 15))
30 | B15 | + (0.5 to 1.5 relative activity over Rd4BB (SEQ ID NO: 15))

Assay: HTP-analysis of supernatants pretreated with base (MUGal hydrolysis)
Type: biochemical
Conditions: activity of the variant/activity of Rd3BB (SEQ ID NO: 13); challenge at pH 9.7
Summary of the method: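 Fluorescence of released 4-MU (Ex 355 nm, Em 448 nm) after carbonate quench reports MUGal hydrolysis by GLA variants secreted from INVSc1 yeast. Before the acidic (pH 4.3-4.8) 30-180 min reaction at 37° C, supernatants had been pre-incubated at pH 7.0-9.7 for 1-18 h at 37° C.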

Row | Molecule | Relative Activity of GLA Variants After Challenge at pH 9.7
31 | B1 | ++ (++ = >5 to 10 relative activity over Rd3BB (SEQ ID NO: 13))
32 | B2 | ++ (++ = >5 to 10 relative activity over Rd3BB (SEQ ID NO: 13))
33 | B3 | ++ (++ = >5 to 10 relative activity over Rd3BB (SEQ ID NO: 13))
34 | B4 | ++ (++ = >5 to 10 relative activity over Rd3BB (SEQ ID NO: 13))
35 | B5 | ++ (++ = >5 to 10 relative activity over Rd3BB (SEQ ID NO: 13))

Same assay, conditions: activity of the variant/activity of Rd4BB (SEQ ID NO: 15); challenge at pH 9.65

Row | Molecule | Relative Activity of GLA Variants After Challenge at pH 9.65
36 | B6 | − (<0.5 relative activity over Rd4BB (SEQ ID NO: 15))
37 | B7 | − (<0.5 relative activity over Rd4BB (SEQ ID NO: 15))
38 | B8 | + (0.5 to 1.5 relative activity over Rd4BB (SEQ ID NO: 15))
39 | B9 | + (0.5 to 1.5 relative activity over Rd4BB (SEQ ID NO: 15))
40 | B10 | − (<0.5 relative activity over Rd4BB (SEQ ID NO: 15))
41 | B11 | − (<0.5 relative activity over Rd4BB (SEQ ID NO: 15))
42 | B12 | − (<0.5 relative activity over Rd4BB (SEQ ID NO: 15))
43 | B13 | − (<0.5 relative activity over Rd4BB (SEQ ID NO: 15))
44 | B14 | − (<0.5 relative activity over Rd4BB (SEQ ID NO: 15))
45 | B15 | − (<0.5 relative activity over Rd4BB (SEQ ID NO: 15))
